This passage reports stoichiometry N results from paper PMC10810272.

The target in test [1] is Candidatus Methanomethylophilus alvus pyrrolysyl-tRNA synthetase (MaPylRS) (Candidatus Methanomethylophilus alvus) (UniProt M9SC49). The experiment in a line: dynamic light scattering; Nano-S Zetasizer, five measurements; sample at 16 μM (0.5 mg/ml); dimer assigned from HullRad predictions on the crystal structure.
Test [2] has the same target. Kind of test: AUC; sedimentation velocity, 20°C, 30 000 rpm; 50 mM MES pH 5.2, 500 mM NaCl, 10 mM MgCl2; multiple concentrations (0.3, 0.6 and 1.2 mg/ml).

Take “Candidatus Methanomethylophilus alvus pyrrolysyl-tRNA synthetase (MaPylRS) (from UniProt M9SC49 1-275) (enzyme)”: the stoichiometry N in test [1] and in test [2] was 2 throughout.
